The term logD denotes the decadic logarithm of the distribution of all forms, ionised or not, between an organic phase and buffer at a given pH.

Here are results for seven molecules from article PMC6270800, “The Effect of Mini-PEG-Based Spacer Length on Binding and Pharmacokinetic Properties of a ^68Ga-Labeled NOTA-Conjugated Antagonistic Analog of Bombesin” (Molecules, 2014).

The format of series [1] is physicochemical. The note with it: pH 7.4. Here is the method:
Aliquots of 50 μL were taken from each phase, and their radioactivity was measured in an automated gamma-counter with 3-inch NaI(Tl) detector (1480 WIZARD, Wallac OyTurku, Finland). Each measurement was repeated nine times. The distribution coefficient was calculated as the average log of a ratio of the radioactivity in the octanol and the PBS fractions.

Another series can be described thus: in vivo. The note with it: female, NMRI, mouse, iv, 45 pmol, total radioactivity.
Another series has as its system BT-474 cells. The series is described as follows: Cellular uptake and internalization assay, BT-474 cells. The format is cell-based, human. To be noted: ^111In-labeled; BT474 cells; 24 h continuous incubation, 2 nM, 37 °C. The procedure: (§1) GRPR expressing human PC cell line PC-3 and human BC cell line BT-474 (ATCC) were cultured in RPMI media complemented with 10% FBS, 2 mM L-glutamine and PEST (penicillin 100 IU/mL) (all from Biochrom AG, Berlin, Germany). This media is referred as complete media in the text. In all in vitro experiments, cells were incubated in complete medium and detached using trypsin-EDTA solution (0.25% trypsin, 0.02% EDTA in buffer; Biochrom AG). All experiments were performed in triplicate and 1 × 10^6 cells/dish were seeded one day before the experiment.
(§2) At predetermined time points, the incubation media was discarded, the cells were washed and the membrane-bound and internalized radioactivity were collected using the method described earlier.

The test system of another series is PC-3 cells. The series is described as follows: Cellular uptake and internalization assay, PC-3 cells. The note with it: ^111In-labeled, 24 h continuous incubation, 2 nM, 37 °C. The format is cell-based, human. Here is the method:
as §1, §2

Another series concerns PC-3 xenografts. The format is in vivo, BALB/c nu/nu mice. The note with it: PC-3 tumors; 2 h p.i. The procedure: (§3) To study tumor targeting, female BALB/c nu/nu mice bearing PC-3 and BT-474 xenografts (4 mice per data point) were intravenously injected with 45 pmol of ^68Ga-NOTA-PEG3-RM26 (700 kBq, 100 µL in PBS). The mice were euthanized at 2 h p.i. and the organ radioactivity content was measured and evaluated as described above. To test the in vivo binding specificity, a group of animals was co-injected with 20 nmol of unlabeled peptide, and biodistribution was measured at 2 h p.i.

The next series concerns BT-474 xenografts. The format is in vivo, BALB/c nu/nu mice. The note with it: BT-474 tumors; 2 h p.i. The procedure: as §3

Method for in vivo: The biodistribution of ^68Ga-labeled NOTA-PEGn-RM26 was evaluated in female NMRI mice (weight: 30 ± 3 g).
Female NMRI mice (3 mice per data point) were injected with 45 pmol of ^68Ga-NOTA-PEGn-RM26 (350 or 700 kBq, 100 µL in PBS) into the tail vein. The administrated peptide dose was adjusted to 45 pmol by dilution with non-labeled NOTA-PEGn-RM26. The mice were euthanized at 1 and 2 h p.i. by intraperitoneal injection of a Ketalar-Rompun solution (10 mg/mL Ketalar and 1 mg/mL Rompun; 20 µL of solution per gram of body weight). Blood samples were collected by heart puncture. The organs of interest were collected, weighed, and their radioactivity content was measured in the gamma-counter. The organ uptake values are expressed as %ID/g except for gastrointestinal (GI) tract (with content) and carcass in which data are presented as %ID per whole sample.

With `CC(C)C[C@H](NC(=O)C[C@H](O)[C@H](CC(C)C)NC(=O)[C@H](Cc1c[nH]cn1)NC(=O)CNC(=O)[C@@H](NC(=O)[C@H](C)NC(=O)[C@H](Cc1c[nH]c2ccccc12)NC(=O)[C@H](CCC(N)=O)NC(=O)[C@@H](Cc1ccccc1)NC(=O)COCCOCCNC(=O)CN1CCN(CC(=O)O)CCN(CC(=O)O)CC1)C(C)C)C(N)=O` [^68Ga-NOTA-PEG2-RM26, metal not drawn], the logD in series [1] is -2.27 ± 0.07.

As for `CC(C)C[C@H](NC(=O)C[C@H](O)[C@H](CC(C)C)NC(=O)[C@H](Cc1c[nH]cn1)NC(=O)CNC(=O)[C@@H](NC(=O)[C@H](C)NC(=O)[C@H](Cc1c[nH]c2ccccc12)NC(=O)[C@H](CCC(N)=O)NC(=O)[C@@H](Cc1ccccc1)NC(=O)CCOCCOCCOCCOCCOCCOCCNC(=O)CN1CCN(CC(=O)O)CCN(CC(=O)O)CC1)C(C)C)C(N)=O` [^68Ga-NOTA-PEG6-RM26, metal not drawn], the logD in series [1] is -2.5 ± 0.09.

With `CC(C)C[C@H](NC(=O)C[C@H](O)[C@H](CC(C)C)NC(=O)[C@H](Cc1c[nH]cn1)NC(=O)CNC(=O)[C@@H](NC(=O)[C@H](C)NC(=O)[C@H](Cc1c[nH]c2ccccc12)NC(=O)[C@H](CCC(N)=O)NC(=O)[C@@H](Cc1ccccc1)NC(=O)COCCOCCNC(=O)CN1CCN(CC(=O)O)CCN(CC(=O)O)CC1)C(C)C)C(N)=O` [PEG2], the “LogD of ^68Ga-NOTA-PEGn-RM26” value in series [1] is −2.27 ± 0.07. Further, the tissue uptake dose at 1 h in “in vivo” (Uptake in GI (with content)) amounted to 4 ± 2 %ID; in “in vivo” (Uptake in carcass), 4 ± 1 %ID. Also, the tissue uptake dose at 2 h in “in vivo” (Uptake in GI (with content)) was 2.88 ± 0.06 %ID; in “in vivo” (Uptake in carcass), 0.9 ± 0.4 %ID.

Regarding `CC(C)C[C@H](NC(=O)C[C@H](O)[C@H](CC(C)C)NC(=O)[C@H](Cc1c[nH]cn1)NC(=O)CNC(=O)[C@@H](NC(=O)[C@H](C)NC(=O)[C@H](Cc1c[nH]c2ccccc12)NC(=O)[C@H](CCC(N)=O)NC(=O)[C@@H](Cc1ccccc1)NC(=O)CCOCCOCCOCCNC(=O)CN1CCN(CC(=O)O)CCN(CC(=O)O)CC1)C(C)C)C(N)=O` [PEG3], the logD in series [1] was -2.47 ± 0.06. The values for the tissue uptake dose at 1 h in “in vivo” (Uptake in GI (with content)) and in the series “in vivo” (Uptake in carcass) were 3.7 ± 0.8 %ID and 2.1 ± 0.4 %ID, respectively. Moreover, the tissue uptake dose at 2 h in the series “in vivo” (Uptake in GI (with content)) came to 2.5 ± 0.7 %ID; in “in vivo” (Uptake in carcass) it was 0.7 ± 0.1 %ID. In addition, the “Internalization rate, % internalized radioactivity from total cell associated” value with BT-474 cells is 32 ± 2%; in the series on PC-3 cells, 31 ± 2%.

Turning to `CC(C)C[C@H](NC(=O)C[C@H](O)[C@H](CC(C)C)NC(=O)[C@H](Cc1c[nH]cn1)NC(=O)CNC(=O)[C@@H](NC(=O)[C@H](C)NC(=O)[C@H](Cc1c[nH]c2ccccc12)NC(=O)[C@H](CCC(N)=O)NC(=O)[C@@H](Cc1ccccc1)NC(=O)CCOCCOCCOCCNC(=O)CN1CCN(CC(=O)O)CCN(CC(=O)O)CC1)C(C)C)C(N)=O` [^68Ga-NOTA-PEG3-RM26, metal not drawn], the results for the “Decrease of tumor uptake by co-injection of non-labeled peptide” value with PC-3 xenografts and in the series with BT-474 xenografts were ~5 fold and “more than 7 fold”, respectively.

On to `CC(C)C[C@H](NC(=O)C[C@H](O)[C@H](CC(C)C)NC(=O)[C@H](Cc1c[nH]cn1)NC(=O)CNC(=O)[C@@H](NC(=O)[C@H](C)NC(=O)[C@H](Cc1c[nH]c2ccccc12)NC(=O)[C@H](CCC(N)=O)NC(=O)[C@@H](Cc1ccccc1)NC(=O)CCOCCOCCOCCOCCOCCOCCNC(=O)CN1CCN(CC(=O)O)CCN(CC(=O)O)CC1)C(C)C)C(N)=O` [PEG6], for which the “LogD of ^68Ga-NOTA-PEGn-RM26” value in series [1] is recorded as −2.50 ± 0.09. In “in vivo” (Uptake in GI (with content)), the tissue uptake dose at 1 h came to 2.8 ± 0.2 %ID and the tissue uptake dose at 2 h came to 1.8 ± 0.5 %ID. In “in vivo” (Uptake in carcass), the tissue uptake dose at 1 h came to 3 ± 1 %ID and the tissue uptake dose at 2 h was determined as 0.71 ± 0.05 %ID. Also, in the series on PC-3 cells, the “Internalization rate, % internalized radioactivity from total cell associated” value stood at 35 ± 2%.

For `CC(C)C[C@H](NC(=O)C[C@H](O)[C@H](CC(C)C)NC(=O)[C@H](Cc1c[nH]cn1)NC(=O)CNC(=O)[C@@H](NC(=O)[C@H](C)NC(=O)[C@H](Cc1c[nH]c2ccccc12)NC(=O)[C@H](CCC(N)=O)NC(=O)[C@@H](Cc1ccccc1)NC(=O)CCOCCOCCOCCOCCNC(=O)CN1CCN(CC(=O)O)CCN(CC(=O)O)CC1)C(C)C)C(N)=O` [PEG4], the logD in series [1] is -2.49 ± 0.1. In addition, in the series “in vivo” (Uptake in GI (with content)), the tissue uptake dose at 1 h came out at 3.5 ± 0.6 %ID and the tissue uptake dose at 2 h came out at 3.1 ± 0.9 %ID. Moreover, in the series “in vivo” (Uptake in carcass), the tissue uptake dose at 1 h amounted to 2.3 ± 0.5 %ID and the tissue uptake dose at 2 h is 1.2 ± 0.3 %ID.
